We go through one molecule from article PMC11239853, “Molecular and structural basis of the chromatin remodeling activity by Arabidopsis DDM1” (Nature Communications, 2024).

Experiment [1] concerns the target T1, Arabidopsis thaliana histone H3.1 (Arabidopsis thaliana, UniProt P59226 1-136).
T1 construct: His6 tag removed with thrombin (pET-15b); also called AtH3.1; source: E. coli BL21(DE3) Codon(+) RIL, purified (Ni-NTA and SP cation exchange, denaturing); in reconstituted nucleosomes; not shown: His6, N-terminal, cleaved
Kind of experiment: cross-linking; nucleosomes (0.2 µM) with AtDDM1 (0.4 µM), 60 mM NaCl, 1 mM MgCl2, 1 mM ADP, pH 7.5, 25 °C; 1.6 mM DSS-H12/D12 (lysine-lysine), LC-MS/MS, xQuest/xProphet. The settings on record: both partners purified.

Experiment [2] deals with T2, Arabidopsis thaliana DECREASE IN DNA …ON 1 (DDM1), full length (Arabidopsis thaliana, UniProt Q9XFH4 1-764).
T2 construct: DDM1, Snf2-type chromatin remodeling factor, Arabidopsis thaliana, full length; His6-SUMO removed with HRV 3C protease; also called AtDDM1; source: E. coli BL21(DE3) Codon(+) RIL, purified (Ni-NTA, RESOURCE Q flow-through, RESOURCE S, Superdex 200); not shown: His6, N-terminal, cleaved; SUMO, N-terminal, cleaved
T2 sequence (Q9XFH4 whole entry): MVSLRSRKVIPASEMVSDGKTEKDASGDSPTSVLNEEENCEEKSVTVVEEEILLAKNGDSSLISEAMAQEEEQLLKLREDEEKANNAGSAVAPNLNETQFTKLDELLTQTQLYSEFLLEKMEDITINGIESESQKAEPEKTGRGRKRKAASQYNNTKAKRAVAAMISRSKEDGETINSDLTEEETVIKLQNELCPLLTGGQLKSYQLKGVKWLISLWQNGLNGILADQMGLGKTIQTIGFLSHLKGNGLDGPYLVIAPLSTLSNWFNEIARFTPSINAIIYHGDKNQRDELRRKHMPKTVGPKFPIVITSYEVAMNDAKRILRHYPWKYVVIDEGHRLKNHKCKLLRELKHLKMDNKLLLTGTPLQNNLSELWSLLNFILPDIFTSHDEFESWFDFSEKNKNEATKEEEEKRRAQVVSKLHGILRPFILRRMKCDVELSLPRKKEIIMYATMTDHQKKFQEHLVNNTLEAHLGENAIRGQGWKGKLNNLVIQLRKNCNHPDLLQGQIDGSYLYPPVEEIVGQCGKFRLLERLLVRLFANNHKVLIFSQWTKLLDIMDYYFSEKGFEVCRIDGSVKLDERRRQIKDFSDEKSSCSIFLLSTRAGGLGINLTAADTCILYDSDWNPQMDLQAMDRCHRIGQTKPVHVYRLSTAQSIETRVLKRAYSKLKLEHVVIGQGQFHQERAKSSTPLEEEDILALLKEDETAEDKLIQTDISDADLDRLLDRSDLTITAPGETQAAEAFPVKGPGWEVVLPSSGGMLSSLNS
Described as above. The settings on record: both partners purified.

B1: Arabidopsis thaliana histone H2A.W.6 (natural protein)
chain: MESTGKVKKAFGGRKPPGAPKTKSVSKSMKAGLQFPVGRITRFLKKGRYAQRLGGGAPVYMAAVLEYLAAEVLELAGNAARDNKKSRIIPRHLLLAIRNDEELGKLLSGVTIAHGGVLPNINSVLLPKKSATKPAEEKATKSPVKSPKKA
notes: His6 tag removed with thrombin (pET-15b); also called AtH2A.W; AtH2A.W.6; source: E. coli BL21(DE3) Codon(+) RIL, purified (Ni-NTA and SP cation exchange, denaturing); in reconstituted nucleosomes; not shown: His6, N-terminal, cleaved
Take B1: the binding result in experiment [1] and in experiment [2] was “binds” in each case.
